In paper PMC8508734 (International Journal of Molecular Sciences, 2021):

How the values were obtained:
[1] = biological target: T1, histamine H3 receptor (H3R) (Rattus norvegicus, UniProt Q9QYN8); assay: BRET between H3R-RLuc and H3R-YFP in HEK […] cells; also […]GTPγS binding (inverse agonist); assay type: cell-based
T1 construct: gene Hrh3; long isoform H3(445)R, C-terminal RLuc / YFP fusions

[2] = biological target: T2, H3R-RLuc (rat histamine H3 receptor, long isoform H3(445)R, fused to Renilla Luciferase) (rat, UniProt Q9QYN8 1-445); assay: FRET or BRET; BRET donor saturation curves in intact living HEK 293 cells, constant RLuc fusion and increasing YFP fusion, 48 h after transfection, HBSS, 25 °C, coelenterazine H 5 µM; without or with imetit or thioperamide (100 nM); conditions: partners not purified
T2 construct: histamine H3 receptor, rat, long isoform H3(445)R (445 residues), cDNA amplified without its stop codon and cloned into pRL-CMV-RLuc; The same construct was expressed in HEK 293 cells and in rat cortical neurons; the assay tells which; also called H3R-Luc; source: rat cortical neurons in primary culture, transfected (lipofectamine 2000); not shown: Renilla Luciferase (RLuc), C-terminal, kept

`S=C(NC1CCCCC1)N1CCC(c2cnc[nH]2)CC1` [thioperamide] gave an EC50 [1] of 2 ± 1 nM.

B1: H3R-YFP (rat histamine H3 receptor, long isoform H3(445)R, fused to Yellow Fluorescent Protein) (receptor, UniProt Q9QYN8 1-445, looked up)
chain: MERAPPDGLMNASGTLAGEAAAAGGARGFSAAWTAVLAALMALLIVATVLGNALVMLAFVADSSLRTQNNFFLLNLAISDFLVGAFCIPLYVPYVLTGRWTFGRGLCKLWLVVDYLLCASSVFNIVLISYDRFLSVTRAVSYRAQQGDTRRAVRKMALVWVLAFLLYGPAILSWEYLSGGSSIPEGHCYAEFFYNWYFLITASTLEFFTPFLSVTFFNLSIYLNIQRRTRLRLDGGREAGPEPPPDAQPSPPPAPPSCWGCWPKGHGEAMPLHRYGVGEAGPGVEAGEAALGGGSGGGAAASPTSSSGSSSRGTERPRSLKRGSKPSASSASLEKRMKMVSQSITQRFRLSRDKKVAKSLAIIVSIFGLCWAPYTLLMIIRAACHGRCIPDYWYETSFWLLWANSAVNPVLYPLCHYSFRRAFTKLLCPQKLKVQPHGSLEQCWK
notes: histamine H3 receptor, rat, long isoform H3(445)R (445 residues), cDNA amplified without its stop codon and cloned into pEYFP-N1; The same construct was expressed in HEK 293 cells and in rat cortical neurons; the assay tells which; also called C-terminal YFP-fused H3R; source: rat cortical neurons in primary culture, transfected (lipofectamine 2000); not shown: YFP, C-terminal, kept
For B1, the “BRET50 (basal)” value [2] was 1.24 acceptor/donor ratio, the “BRET50 (with imetit 100 nM)” value [2] was 1.19 acceptor/donor ratio and the “BRET50 (with thioperamide 100 nM)” value [2] was 1.56 acceptor/donor ratio.
